Results taken from US20140105889A1 (published 2014).
Numbering of substitutions follows the chain as printed. Names may count otherwise.

T1: human FcγRIIa(R) (human, UniProt P12318 36-217)
T1 construct: Analyte in solution on Biacore; also called FcγRIIa type R; FcgRIIaR
T1 chain: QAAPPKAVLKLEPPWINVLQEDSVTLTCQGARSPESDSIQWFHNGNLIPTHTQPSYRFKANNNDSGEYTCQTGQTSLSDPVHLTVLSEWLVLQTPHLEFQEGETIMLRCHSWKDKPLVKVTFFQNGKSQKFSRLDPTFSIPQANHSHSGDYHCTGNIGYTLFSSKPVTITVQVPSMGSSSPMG

T2: human FcγRIIa(H) (human, UniProt P12318 36-217)
T2 construct: Analyte in solution on Biacore; also called FcγRIIa type H; FcgRIIaH
T2 sequence: T1 chain with R133H

T3: human FcγRIIb (human, UniProt P31994 43-217, limits assumed)
T3 construct: Analyte in solution on Biacore; also called FcgRIIb; hFcgRIIb
T3 sequence: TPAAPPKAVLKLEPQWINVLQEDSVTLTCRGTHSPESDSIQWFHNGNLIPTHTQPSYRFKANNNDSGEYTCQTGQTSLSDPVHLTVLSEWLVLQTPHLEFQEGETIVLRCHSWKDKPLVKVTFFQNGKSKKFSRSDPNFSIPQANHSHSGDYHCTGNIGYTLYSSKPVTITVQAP

T4: human FcγRIIb (human, UniProt P31994 43-217)
T4 construct: also called FcγIIB; FcγRIIb extracellular region
T4 sequence: T3 sequence

T5: human FcγRIIa type R (human, UniProt P12318 36-217)
T5 construct: also called Fcγ RIIaR; FcγRIIa(R)
T5 chain: T1 chain

B1: GpH7-B3 variant P329E / GpL16-k0 (antibody, human IgG1)
heavy: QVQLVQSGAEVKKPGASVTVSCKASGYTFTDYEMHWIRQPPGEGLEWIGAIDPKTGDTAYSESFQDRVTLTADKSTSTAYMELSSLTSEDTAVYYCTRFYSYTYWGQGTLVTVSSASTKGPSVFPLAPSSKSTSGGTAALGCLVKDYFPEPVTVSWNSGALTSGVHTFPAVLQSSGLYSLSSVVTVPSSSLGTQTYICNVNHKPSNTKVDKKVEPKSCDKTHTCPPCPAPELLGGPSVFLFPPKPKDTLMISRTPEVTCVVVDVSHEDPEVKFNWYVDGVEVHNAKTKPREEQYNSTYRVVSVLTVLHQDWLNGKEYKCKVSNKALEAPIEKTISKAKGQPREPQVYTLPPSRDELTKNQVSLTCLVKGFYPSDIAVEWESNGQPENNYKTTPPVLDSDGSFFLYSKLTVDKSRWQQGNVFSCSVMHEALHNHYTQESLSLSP
light: DIVMTQSPLSLPVTPGEPASISCQASESLVHSNRNTYLHWYLQKPGQSPQLLIYKVSNRFSGVPDRFSGSGSGTDFTLKISRVEAEDVGVYYCSQNTHVPPTFGQGTKVEIE
notes: Anti-glypican-3 IgG1; constant region B3 = G1d with K439E
B2: GpH7-B3 variant P331R / GpL16-k0 (antibody, human IgG1)
heavy: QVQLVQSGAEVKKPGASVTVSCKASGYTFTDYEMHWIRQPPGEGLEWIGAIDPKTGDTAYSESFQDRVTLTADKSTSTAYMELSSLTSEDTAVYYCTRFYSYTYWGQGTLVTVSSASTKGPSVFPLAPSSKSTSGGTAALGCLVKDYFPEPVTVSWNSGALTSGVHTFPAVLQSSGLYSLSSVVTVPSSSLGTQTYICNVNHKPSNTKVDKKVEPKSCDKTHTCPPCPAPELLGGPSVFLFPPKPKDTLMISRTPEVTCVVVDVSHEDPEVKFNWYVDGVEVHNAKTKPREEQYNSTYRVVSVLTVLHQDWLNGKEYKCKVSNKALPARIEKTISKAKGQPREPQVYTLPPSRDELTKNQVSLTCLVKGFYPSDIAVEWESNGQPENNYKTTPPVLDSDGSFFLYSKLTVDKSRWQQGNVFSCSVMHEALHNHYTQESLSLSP
light: B1 light
notes: as for B1
B3: GpH7-B3 variant P329W / GpL16-k0 (antibody, human IgG1)
heavy: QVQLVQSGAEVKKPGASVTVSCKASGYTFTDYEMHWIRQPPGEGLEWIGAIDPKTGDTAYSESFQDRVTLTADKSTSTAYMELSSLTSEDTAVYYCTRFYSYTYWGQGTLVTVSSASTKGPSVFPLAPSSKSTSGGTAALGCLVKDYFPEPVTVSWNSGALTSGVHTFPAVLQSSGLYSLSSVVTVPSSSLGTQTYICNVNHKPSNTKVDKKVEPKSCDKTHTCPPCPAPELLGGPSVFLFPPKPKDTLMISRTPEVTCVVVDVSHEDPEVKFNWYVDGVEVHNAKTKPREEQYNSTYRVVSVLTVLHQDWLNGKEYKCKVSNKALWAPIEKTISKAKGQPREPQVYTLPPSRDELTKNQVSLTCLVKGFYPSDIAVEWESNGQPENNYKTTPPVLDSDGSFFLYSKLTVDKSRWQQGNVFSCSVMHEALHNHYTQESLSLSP
light: B1 light
notes: as for B1
B4: GpH7-B3 variant P331K / GpL16-k0 (antibody, human IgG1)
heavy: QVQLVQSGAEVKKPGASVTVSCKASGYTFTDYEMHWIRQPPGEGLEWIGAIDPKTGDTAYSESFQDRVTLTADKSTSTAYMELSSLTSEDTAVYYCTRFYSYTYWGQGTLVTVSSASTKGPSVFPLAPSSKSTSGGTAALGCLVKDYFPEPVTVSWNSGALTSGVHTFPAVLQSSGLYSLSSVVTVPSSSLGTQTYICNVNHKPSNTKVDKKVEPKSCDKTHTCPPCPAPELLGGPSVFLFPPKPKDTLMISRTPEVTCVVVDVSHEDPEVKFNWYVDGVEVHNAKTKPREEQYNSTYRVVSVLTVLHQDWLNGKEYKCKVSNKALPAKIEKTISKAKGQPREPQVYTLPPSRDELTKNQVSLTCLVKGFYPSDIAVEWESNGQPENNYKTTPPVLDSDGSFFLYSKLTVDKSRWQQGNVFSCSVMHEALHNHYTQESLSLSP
light: B1 light
notes: as for B1
B5: GpH7-B3 variant P329G / GpL16-k0 (antibody, human IgG1)
heavy: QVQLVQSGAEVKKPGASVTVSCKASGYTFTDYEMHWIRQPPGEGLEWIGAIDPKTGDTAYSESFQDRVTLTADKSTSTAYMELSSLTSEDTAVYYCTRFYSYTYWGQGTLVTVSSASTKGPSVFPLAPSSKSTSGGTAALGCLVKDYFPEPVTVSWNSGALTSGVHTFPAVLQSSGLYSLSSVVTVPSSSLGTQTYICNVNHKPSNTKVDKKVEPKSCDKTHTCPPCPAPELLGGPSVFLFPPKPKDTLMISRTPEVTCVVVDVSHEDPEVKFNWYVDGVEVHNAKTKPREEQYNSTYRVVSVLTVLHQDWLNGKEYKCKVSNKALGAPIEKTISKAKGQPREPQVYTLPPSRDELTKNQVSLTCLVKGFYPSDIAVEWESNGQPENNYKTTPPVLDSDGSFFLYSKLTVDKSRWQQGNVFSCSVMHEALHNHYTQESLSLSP
light: B1 light
notes: as for B1
B6: GpH7-B3 variant P329Y / GpL16-k0 (antibody, human IgG1)
heavy: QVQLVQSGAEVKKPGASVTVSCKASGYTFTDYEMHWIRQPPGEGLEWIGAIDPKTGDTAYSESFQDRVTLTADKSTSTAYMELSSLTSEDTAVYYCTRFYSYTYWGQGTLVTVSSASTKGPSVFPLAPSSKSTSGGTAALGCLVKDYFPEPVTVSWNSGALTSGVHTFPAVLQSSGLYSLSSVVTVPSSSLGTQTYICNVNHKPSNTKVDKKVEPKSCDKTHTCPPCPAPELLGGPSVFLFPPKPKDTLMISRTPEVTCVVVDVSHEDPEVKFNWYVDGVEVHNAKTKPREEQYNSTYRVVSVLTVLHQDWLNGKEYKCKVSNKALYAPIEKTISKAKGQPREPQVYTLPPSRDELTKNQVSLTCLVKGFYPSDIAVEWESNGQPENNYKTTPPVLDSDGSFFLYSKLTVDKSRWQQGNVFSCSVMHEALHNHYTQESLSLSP
light: B1 light
notes: as for B1
B7: IL6R-F652/IL6R-L (antibody, human IgG1)
heavy: QVQLQESGPGLVKPSETLSLTCAVSGHSISHDHAWSWVRQPPGEGLEWIGFISYSGITNYNPSLQGRVTISRDNSKNTLYLQMNSLRAEDTAVYYCARSLARTTAMDYWGEGTLVTVSSASTKGPSVFPLAPSSKSTSGGTAALGCLVKDYFPEPVTVSWNSGALTSGVHTFPAVLQSSGLYSLSSVVTVPSSSLGTQTYICNVNHKPSNTKVDKKVEPKSCDKTHTCPPCPAPELLGGDSVFLFPPKPKDTLYISRTPEVTCVVVDVSHEDPEVKFNWYVDGVEVHNAKTKPREEQYNSTYRVVSVLTVLHQDWLNGKEYKCKVSNKALPAPIEKTISKAKGQPREPQVYTLPPSRDELTKNQVSLTCLVKGFYPSDIAVEWESNGQPENNYKTTPPVLDSDGSFFLYSKLTVDKSRWQQGNVFSCSVMHEALHYHYTQKSLSLSP
light: DIQMTQSPSSLSASVGDRVTITCRASQDISSYLNWYQQKPGKAPKLLIYYTSRLHSGVPSRFSGSGSGTDFTFTISSLQPEDIATYYCQQGNTLPYTFGQGTKVEIK
notes: Anti-human IL-6 receptor IgG1 antibody; H chain is IL6R-F11 (M252Y/N434Y in IL6R-G1d) with P238D (EU numbering); Control antibody of the PD variants; copies: 2 + 2
B8: IL6R-PD079/IL6R-L (antibody, human IgG1)
heavy: B7 heavy with G239A
light: B7 light
notes: PD variant: P238D/G237A introduced into IL6R-F11 (EU numbering); copies: 2 + 2
B9: IL6R-PD043/IL6R-L (antibody, human IgG1)
heavy: B7 heavy with L236Y
light: B7 light
notes: PD variant: P238D/L234Y introduced into IL6R-F11 (EU numbering); copies: 2 + 2
B10: IL6R-PD042/IL6R-L (antibody, human IgG1)
heavy: B7 heavy with L236W
light: B7 light
notes: PD variant: P238D/L234W introduced into IL6R-F11 (EU numbering); copies: 2 + 2

These binders were tested against T6, human FcγRIa (human, UniProt P12314 16-292, limits assumed) (assay: SPR (Biacore), antibody captured on chip, FcγR as analyte, HBS-EP+, 25°C;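 further: FcγR binding response divided by the amount of captured antibody, then expressed relative to the reference antibody ×100, with antibodies captured via immobilized Protein A, A/G, L or antigen peptides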).
T6 construct: Analyte in solution on Biacore; also called FcgRIa; hFcgRIa
T6 sequence (P12314 16-292 limits assumed): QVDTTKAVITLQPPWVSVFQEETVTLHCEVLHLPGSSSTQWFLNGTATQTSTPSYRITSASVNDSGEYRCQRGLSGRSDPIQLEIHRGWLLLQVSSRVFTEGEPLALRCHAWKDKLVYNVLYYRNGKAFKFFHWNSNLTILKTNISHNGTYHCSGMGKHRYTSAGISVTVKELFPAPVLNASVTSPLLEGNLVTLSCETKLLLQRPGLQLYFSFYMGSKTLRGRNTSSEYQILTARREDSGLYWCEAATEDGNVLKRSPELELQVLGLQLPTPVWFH
Method: (§1) Interaction between each modified antibody and Fcγ receptor prepared in the manner described above was analyzed using the Biacore T100 (GE Healthcare), Biacore T200 (GE Healthcare), Biacore A100 or Biacore 4000. HBS-EP+ (GE Healthcare) was used for the running buffer, and measurements were carried out at 25° C. The chips used were chips in which antigen peptides, Protein A (Thermo Scientific), Protein A/G (Thermo Scientific) or Protein L (ACTIGEN or BioVision) were immobilized on the Series S Sensor Chip CM5 (GE Healthcare) or Series S Sensor Chip CM4 (GE Healthcare) by amine coupling, or chips in which preliminarily biotinylated antigen peptides were allowed to interact and then immobilized on the Series S Sensor Chip SA (certified) (GE Healthcare). The target antibodies were captured on these sensor chips, Fcγ receptor diluted with the running buffer was allowed to interact, followed by measurement of the amount of bound antibody. The amounts bound were compared between antibodies. However, since the amount of Fcγ receptor bound depends on the amount of captured antibody, the values used for comparison were first corrected by dividing the amount of Fcγ receptor bound by the captured amount of each antibody. Through reaction with 10 mM glycine-HCl at pH 1.5, the sensor chips were regenerated by washing off antibody captured on the sensor chips and used repeatedly.
(§2) Binding strength was evaluated according to the following method based on the results of analyzing the interaction with each FcγR. […] That value was then further multiplied by 100, and the resulting value was used as an indicator of relative binding activity to each FcγR.

| relative binding activity (% of GpH7-B3/GpL16-k0) [%] | Binder |
| --- | --- |
| 33 | B1 |
| 95 | B2 |
| 94 | B3 |
| 98 | B4 |
| 92 | B5 |
| 76 | B6 |

Target: T1, human FcγRIIa(R)
Experiment: as above
Method: as §1, §2

| relative binding activity (% of GpH7-B3/GpL16-k0) [%] | Binder |
| --- | --- |
| -1 | B1 |
| 64 | B2 |
| 1 | B3 |
| 72 | B4 |
| 1 | B5 |
| -1 | B6 |

These binders were tested against T2, human FcγRIIa(H) in the same assay as above.
Method: as §1, §2

| relative binding activity (% of GpH7-B3/GpL16-k0) [%] | Binder |
| --- | --- |
| 0 | B1 |
| 59 | B2 |
| 0 | B3 |
| 58 | B4 |
| 1 | B5 |
| 0 | B6 |

What follows are binders tested against T3, human FcγRIIb in the same assay as above.
Method: as §1, §2

| relative binding activity (% of GpH7-B3/GpL16-k0) [%] | Binder |
| --- | --- |
| -2 | B1 |
| 55 | B2 |
| 0 | B3 |
| 63 | B4 |
| 0 | B5 |
| -3 | B6 |

These binders were tested against T7, human FcγRIIIa(F) (human, UniProt P08637 17-208, limits assumed) in the same assay as above.
T7 construct: also called FcgRIIIaF; hFcgRIIIa(F)
T7 sequence (P08637 other isoform, or with tags, fused parts or gaps limits assumed): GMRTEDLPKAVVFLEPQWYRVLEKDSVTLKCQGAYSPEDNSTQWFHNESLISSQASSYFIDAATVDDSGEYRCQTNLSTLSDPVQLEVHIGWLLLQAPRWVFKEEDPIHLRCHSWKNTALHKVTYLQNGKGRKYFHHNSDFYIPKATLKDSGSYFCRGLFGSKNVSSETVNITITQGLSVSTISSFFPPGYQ
Method: as §1, §2

| relative binding activity (% of GpH7-B3/GpL16-k0) [%] | Binder |
| --- | --- |
| -1 | B1 |
| 38 | B2 |
| 0 | B3 |
| 34 | B4 |
| 4 | B5 |
| 0 | B6 |

These binders were tested against T4, human FcγRIIb (assay: SPR (Biacore), antibody captured on chip, FcγR as analyte; binding amount divided by that of IL6R-F652/IL6R-L, times 100).

| relative binding activity for FcγRIIb | Binder |
| --- | --- |
| 100 % of the binding amount of IL6R-F652/IL6R-L | B7 |
| 101 % of the binding amount of IL6R-F652/IL6R-L | B8 |
| 112 % of the binding amount of IL6R-F652/IL6R-L | B9 |
| 106 % of the binding amount of IL6R-F652/IL6R-L | B10 |

Target: T5, human FcγRIIa type R
Experiment: as above

| relative binding activity for FcγRIIaR | Binder |
| --- | --- |
| 100 % of the binding amount of IL6R-F652/IL6R-L | B7 |
| 138 % of the binding amount of IL6R-F652/IL6R-L | B8 |
| 175 % of the binding amount of IL6R-F652/IL6R-L | B9 |
| 240 % of the binding amount of IL6R-F652/IL6R-L | B10 |
